From FireProtDB (doi:10.1021/bi00174a031) come the findings set out here.

B1: Phosphoglycerate kinase, P00560 (parent)
chain: MSLSSKLSVQDLDLKDKRVFIRVDFNVPLDGKKITSNQRIVAALPTIKYVLEHHPRYVVLASHLGRPNGERNEKYSLAPVAKELQSLLGKDVTFLNDCVGPEVEAAVKASAPGSVILLENLRYHIEEEGSRKVDGQKVKASKEDVQKFRHELSSLADVYINDAFGTAHRAHSSMVGFDLPQRAAGFLLEKELKYFGKALENPTRPFLAILGGAKVADKIQLIDNLLDKVDSIIIGGGMAFTFKKVLENTEIGDSIFDKAGAEIVPKLMEKAKAKGVEVVLPVDFIIADAFSADANTKTVTDKEGIPAGWQGLDNGPESRKLFAATVAKAKTIVWNGPPGVFEFEKFAAGTKALLDEVVKSSAAGNTVIIGGGDTATVAKKYGVTDKISHVSTGGGASLELLEGKELPGVAFLSEKK

The variants in the data set derive from B1. Particulars: Saccharomyces cerevisiae (strain ATCC 204508 / S288c), pH 7.5, 25 °C, GdnHCl, Sodium phosphate 20 mM, structure 3PGK, whole UniProt chain shown.

Turning to W309F W334F, under “CD”, the “ddG of mutation (higher = less stable)” value is 6.33 kcal/mol, the denaturant m value came to 6.1 kcal/mol/M, the “denaturant midpoint (higher = more stable)” value (shortened to “denaturant midpoint”) was determined as 0.48 M and the unfolding free energy was found to be 2.98 kcal/mol. Further, for the setting “Fluorescence”, the “ddG of mutation (higher = less stable)” value worked out at 8.72 kcal/mol, the denaturant m value was 5.9 kcal/mol/M, the “denaturant midpoint” value stood at 0.49 M and the unfolding free energy stood at 3.03 kcal/mol.
Turning to W309F, under “CD”, the “ddG of mutation (higher = less stable)” value is 3.63 kcal/mol, the denaturant m value was found to be 8.4 kcal/mol/M, the “denaturant midpoint” value was found to be 0.67 M and the unfolding free energy came to 5.68 kcal/mol. Moreover, for the setting “Fluorescence”, the “ddG of mutation (higher = less stable)” value worked out at 3.71 kcal/mol, the denaturant m value was 12.8 kcal/mol/M, the “denaturant midpoint” value came to 0.63 M and the unfolding free energy amounted to 8.04 kcal/mol.
For the variant W334F, where the note is “CD”, the “ddG of mutation (higher = less stable)” value worked out at 3.93 kcal/mol, the denaturant m value was determined as 8.4 kcal/mol/M, the “denaturant midpoint” value was 0.63 M and the unfolding free energy was determined as 5.38 kcal/mol.
